Test results: PMC5353707

Columns and labels:
[1] = molecular target: EGF456 (TM456) component of the thrombin-thrombomodulin fusion proteins (human) (UniProt P07204)
[2] = molecular target: fragment TM456 of human thrombomodulin (soluble EGF456 domains) (human) (UniProt P07204)
[3] = molecular target: fragment TM456 of human thrombomodulin (soluble EGF456 domains) (human) (UniProt P07204); assay: SPR; biotinyl-TM456 on a neutravidin-coated CM5 chip (177 RU); thrombin injected at 30 μl/min, contact and dissociation 120 sec; 25 °C; Biacore-S200; TM456 loaded in 10 mM HEPES pH 7.4, 150 mM NaCl, 2.5 mM Ca2+, 0.05% Tween20; Kd from response units at the steady state
[4] = molecular target: Full-length rabbit thrombomodulin (TM) (rabbit)

Substance: thrombin mutant W215A (enzyme)
- kcat/KM of protein C activation by FP31W215A (thrombin W215A fused to EGF456, 31-residue linker) [1]: 3300 M⁻¹ s⁻¹
- kcat/KM of protein C activation by thrombin W215A with 500 nM TM456 [2]: 3200 M⁻¹ s⁻¹
- Kd [3]: 0.023 µM

Substance: thrombin wild-type (enzyme)
- kcat/KM of cleavage of the PAR1 fragment by FP7 (thrombin fused to TM456, 7-residue linker) [1]: 5.8e+06 M⁻¹ s⁻¹
- kcat/KM of cleavage of the PAR1 fragment by FP17 (thrombin fused to TM456, 17-residue linker) [1]: 2e+06 M⁻¹ s⁻¹
- kcat/KM of cleavage of the PAR1 fragment by FP31 (thrombin fused to TM456, 31-residue linker) [1]: 300000 M⁻¹ s⁻¹
- kcat/KM of cleavage of the PAR1 fragment by FP41 (thrombin fused to TM456, 41-residue linker) [1]: 950000 M⁻¹ s⁻¹
- kcat/KM of cleavage of the PAR1 fragment by FP55 (thrombin fused to TM456, 55-residue linker) [1]: 2.3e+06 M⁻¹ s⁻¹
- kcat/KM of cleavage of the PAR1 fragment by FP69 (thrombin fused to TM456, 69-residue linker) [1]: 1.4e+07 M⁻¹ s⁻¹
- kcat/KM of fibrinopeptide A release by FP7 (thrombin fused to TM456, 7-residue linker) [1]: 6.7e+06 M⁻¹ s⁻¹
- kcat/KM of fibrinopeptide A release by FP17 (thrombin fused to TM456, 17-residue linker) [1]: 1.55e+06 M⁻¹ s⁻¹
- kcat/KM of fibrinopeptide A release by FP31 (thrombin fused to TM456, 31-residue linker) [1]: 300000 M⁻¹ s⁻¹
- kcat/KM of fibrinopeptide A release by FP41 (thrombin fused to TM456, 41-residue linker) [1]: 600000 M⁻¹ s⁻¹
- kcat/KM of fibrinopeptide A release by FP55 (thrombin fused to TM456, 55-residue linker) [1]: 1.3e+06 M⁻¹ s⁻¹
- kcat/KM of fibrinopeptide A release by FP69 (thrombin fused to TM456, 69-residue linker) [1]: 1.1e+07 M⁻¹ s⁻¹
- kcat/KM of protein C activation by FP7 (thrombin fused to TM456, 7-residue linker) [1]: 1100 M⁻¹ s⁻¹
- kcat/KM of protein C activation by FP17 (thrombin fused to TM456, 17-residue linker) [1]: 6100 M⁻¹ s⁻¹
- kcat/KM of protein C activation by FP31 (thrombin fused to TM456, 31-residue linker) [1]: 85000 M⁻¹ s⁻¹
- kcat/KM of protein C activation by FP41 (thrombin fused to TM456, 41-residue linker) [1]: 107000 M⁻¹ s⁻¹
- kcat/KM of protein C activation by FP55 (thrombin fused to TM456, 55-residue linker) [1]: 120000 M⁻¹ s⁻¹
- kcat/KM of protein C activation by FP69 (thrombin fused to TM456, 69-residue linker) [1]: 74000 M⁻¹ s⁻¹
- kcat/KM of protein C activation by thrombin with 500 nM TM456 [2]: 80000 M⁻¹ s⁻¹
- kcat/KM of protein C activation by thrombin with TM [4]: 230000 M⁻¹ s⁻¹
- Kd [3]: 0.018 µM

Substance: thrombin double mutant W215A/E217A (WE) (enzyme)
- kcat/KM of protein C activation by thrombin WE with 500 nM TM456 [2]: 380 M⁻¹ s⁻¹
- Kd [3]: 0.031 µM

Substance: thrombin W215A/E217A (WE) component of the fusion protein FP31WE (domain or fragment)
- kcat/KM of protein C activation by FP31WE (thrombin WE fused to EGF456, 31-residue linker) [1]: 550 M⁻¹ s⁻¹
